How the values were obtained:
[1] = molecular target: bacteriophage T5 capsid-like particles (T5 CLPs) (bacteriophage T5)
[2] = molecular target: bacteriophage T5 capsid-like particles (T5 CLPs) (bacteriophage T5); assay: cryo-EM structure; pNO-decorated CLPs, 200 kV Glacios, icosahedral (I4) reconstruction from 10,449 particles, 5.8 Å

pNO: N-terminal capsid-binding domain pN of pb10 fused at its C-terminal end with ovalbumin, sequence (Q6QGD6 whole entry, the tested form may be a part): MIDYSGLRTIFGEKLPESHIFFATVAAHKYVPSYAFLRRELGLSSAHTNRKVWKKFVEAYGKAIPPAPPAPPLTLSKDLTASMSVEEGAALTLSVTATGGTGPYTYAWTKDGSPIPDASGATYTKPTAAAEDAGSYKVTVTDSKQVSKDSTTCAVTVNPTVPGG
pO: full-length pb10 fused at its C-terminal end with ovalbumin, sequence (Q6QGD6 whole entry, the tested form may be a part): as above

| anti-Ova IgG (ELISA) in sera of C57BL/6 mice after a single subcutaneous injection of CLP-bound pNO against pNO alone, days 14 to 192 post-injection [1] [fold] | stoichiometry N (copies per capsid) [2] | anti-Ova IgG (ELISA) in sera of C57BL/6 mice after a single subcutaneous injection of CLP-bound pO against pO alone, days 14 to 192 post-injection [1] [fold] | Substance |
| --- | --- | --- | --- |
| 1000 | 120 |  | pNO: N-terminal capsid-binding domain pN of pb10 fused at its C-terminal end with ovalbumin (from UniProt Q6QGD6 1-73) |
|  |  | 1000 | pO: full-length pb10 fused at its C-terminal end with ovalbumin (from UniProt Q6QGD6 1-164) |

From article PMC10766600
